Source: patent publication CN112592401A

Biological target: 灭活非洲猪瘟病毒抗原 (非洲猪瘟全病毒)
Test: ELISA with whole ASFV, as in Fig. 6 (scFv coated, inactivated ASFV captured)

B1: 抗非洲猪瘟病毒的ScFv抗体VH-VLλ11 (scFv)
scFv: MEVKLVESGGGLVQPGGSLRLSCVGSEYEFRGSLIHWVRQAPGKGLEWLATICTTDPITEYADSVKGRFTISRDSSQNTAYLQMDSLRGEDTARYYCGVAFSYGGGCHRMDLRGQGVEVVVGGGGSGGMSQTVIQEPAMSVSPGGTVTLTCAFSSGSESTRKYPIRFQQTPGQPPRLLIYHTNSRPTGVPSRFSGAISGNKAALTITGAQAEDEADYFCSLYIRTYNVPFGGGTHLTVL
OD450nm: 1.12 OD450nm
